Laboratory results: patent US20090136998A1 (Stanford University, published 2009)

Molecular target: T1, human VEGFR-2 expressed on porcine aortic endothelial cells (PAE/VEGFR-2) (human, UniProt P35968 20-1356)
T1 construct: whole, on cells; also called KDR; PAE/KDR cells
Assay: competitive bioluminescence ELISA on PAE/VEGFR-2 cells; cold VEGF 121 varied against RL8-VEGF
Procedure: FIG. 10A illustrates coomassie Blue staining of purified fusion proteins and control proteins. […] FIG. 10B illustrates a Western Blot of purified proteins. […] FIG. 10C illustrates competitive bioluminescence ELISA on PAE/VEGFR-2 overexpressing cells.
Cells were washed and incubated with 0.5 μg of coelenterazine substrate and immediately imaged in the Xenogen IVIS 100 optical cooled charge-coupled device (CCD) (Xenogen, Alameda, Calif.). Regions of interest (ROIs) were drawn over the cell area and quantified in average photons/second/centimeter²/steradian (photons/s/cm²/sr) by using […] version 2.50 (Xenogen, Alameda, Calif.).

T1 sequence (P35968 20-1356): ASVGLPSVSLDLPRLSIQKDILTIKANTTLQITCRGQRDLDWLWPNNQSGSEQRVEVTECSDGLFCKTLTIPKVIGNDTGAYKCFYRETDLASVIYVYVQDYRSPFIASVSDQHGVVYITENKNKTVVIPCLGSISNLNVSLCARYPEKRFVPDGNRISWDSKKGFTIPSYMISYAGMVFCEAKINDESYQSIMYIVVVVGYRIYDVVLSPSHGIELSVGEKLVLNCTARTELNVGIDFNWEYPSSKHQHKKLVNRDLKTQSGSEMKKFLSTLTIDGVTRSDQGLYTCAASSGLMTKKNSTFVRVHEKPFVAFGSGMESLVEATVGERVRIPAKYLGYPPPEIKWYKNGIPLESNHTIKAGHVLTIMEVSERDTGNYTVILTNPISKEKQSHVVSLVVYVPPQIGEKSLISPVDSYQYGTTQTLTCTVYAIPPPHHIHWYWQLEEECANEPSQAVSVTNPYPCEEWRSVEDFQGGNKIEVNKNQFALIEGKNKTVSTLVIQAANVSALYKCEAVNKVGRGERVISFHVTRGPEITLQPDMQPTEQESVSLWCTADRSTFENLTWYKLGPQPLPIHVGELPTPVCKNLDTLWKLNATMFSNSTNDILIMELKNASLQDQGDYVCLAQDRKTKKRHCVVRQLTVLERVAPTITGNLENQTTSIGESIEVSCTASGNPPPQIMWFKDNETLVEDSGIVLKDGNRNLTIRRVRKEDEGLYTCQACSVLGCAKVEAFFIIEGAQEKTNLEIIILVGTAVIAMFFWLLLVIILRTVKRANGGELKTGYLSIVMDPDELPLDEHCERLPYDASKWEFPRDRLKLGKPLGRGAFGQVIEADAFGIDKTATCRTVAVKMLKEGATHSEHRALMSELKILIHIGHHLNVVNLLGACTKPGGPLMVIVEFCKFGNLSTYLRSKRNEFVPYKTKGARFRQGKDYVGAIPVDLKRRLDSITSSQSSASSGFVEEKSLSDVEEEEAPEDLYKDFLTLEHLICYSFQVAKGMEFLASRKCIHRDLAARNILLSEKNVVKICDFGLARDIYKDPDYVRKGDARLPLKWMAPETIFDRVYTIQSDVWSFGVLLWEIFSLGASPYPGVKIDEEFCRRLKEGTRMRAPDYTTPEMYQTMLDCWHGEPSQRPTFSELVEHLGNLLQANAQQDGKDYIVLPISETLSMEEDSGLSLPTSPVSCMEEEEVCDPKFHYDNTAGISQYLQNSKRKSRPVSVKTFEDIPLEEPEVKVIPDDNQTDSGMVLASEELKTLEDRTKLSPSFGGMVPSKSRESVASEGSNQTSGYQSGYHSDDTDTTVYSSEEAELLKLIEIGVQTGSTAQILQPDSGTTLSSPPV

B1: recombinant human VEGF 121 (PeproTech) (ligand, UniProt P15692-9 27-147, looked up)
chain: APMAEGGGQNHHEVVKFMDVYQRSYCHPIETLVDIFQEYPDEIEYIFKPSCVPLMRCGGCCNDEGLECVPTEESNITMQIMRIKPHQGQHIGEMSFLQHNKCECRPKKDRARQEKCDKPRR
Question: B1 was tested. Which IC50 did it give?
Answer: The IC50 was 0.045 µg/mL.
